Ends that are not written are not given here.
B1: α1 peptide (TFALRGDNP), RGD peptide derived from laminin α1 subunit (peptide)
peptide: TFALRGDNP
modifications: also: N-terminus conjugated to oxidized alginate (EDC-NHS) or methacrylated and co-polymerized with PEGDA
B2: RGDSP peptide (peptide)
peptide: RGDSP
modifications: also: N-terminus conjugated to oxidized alginate (EDC-NHS) or methacrylated and co-polymerized with PEGDA
B3: RGDS peptide (peptide)
peptide: RGDS
modifications: also: N-terminus conjugated to oxidized alginate (EDC-NHS) or methacrylated and co-polymerized with PEGDA

Target: αvβ3 integrin on human umbilical vein endothelial cells (HUVECs) (human, UniProt P06756 31-1048; P05106 27-788)
Sequence (P06756 31-1048, chain 1 of 2): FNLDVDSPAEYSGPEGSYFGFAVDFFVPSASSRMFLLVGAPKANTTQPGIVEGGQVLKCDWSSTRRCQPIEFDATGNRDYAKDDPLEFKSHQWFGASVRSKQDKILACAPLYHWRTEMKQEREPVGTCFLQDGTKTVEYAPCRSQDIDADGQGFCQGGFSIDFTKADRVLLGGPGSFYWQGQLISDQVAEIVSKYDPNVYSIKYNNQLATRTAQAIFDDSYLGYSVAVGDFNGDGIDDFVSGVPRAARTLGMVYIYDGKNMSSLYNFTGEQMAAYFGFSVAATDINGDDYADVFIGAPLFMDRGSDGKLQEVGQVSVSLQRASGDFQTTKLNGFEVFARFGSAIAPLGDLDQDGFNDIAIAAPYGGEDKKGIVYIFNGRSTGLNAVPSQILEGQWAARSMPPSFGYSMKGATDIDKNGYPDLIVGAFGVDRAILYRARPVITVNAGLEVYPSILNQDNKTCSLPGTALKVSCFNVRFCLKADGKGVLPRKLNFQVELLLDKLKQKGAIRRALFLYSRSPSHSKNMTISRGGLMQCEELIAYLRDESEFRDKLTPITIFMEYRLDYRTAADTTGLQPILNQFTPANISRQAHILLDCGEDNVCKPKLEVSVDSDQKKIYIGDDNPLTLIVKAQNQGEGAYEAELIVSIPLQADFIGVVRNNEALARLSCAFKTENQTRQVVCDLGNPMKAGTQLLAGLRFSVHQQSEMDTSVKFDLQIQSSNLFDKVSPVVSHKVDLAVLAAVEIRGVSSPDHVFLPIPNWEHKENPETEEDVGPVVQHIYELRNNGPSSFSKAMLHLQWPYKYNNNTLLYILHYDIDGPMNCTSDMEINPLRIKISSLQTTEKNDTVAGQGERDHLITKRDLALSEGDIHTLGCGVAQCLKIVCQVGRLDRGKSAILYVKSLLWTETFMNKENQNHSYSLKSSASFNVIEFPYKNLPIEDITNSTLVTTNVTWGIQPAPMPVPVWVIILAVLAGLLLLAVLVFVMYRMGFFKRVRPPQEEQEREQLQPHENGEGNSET
Sequence (P05106 27-788, chain 2 of 2): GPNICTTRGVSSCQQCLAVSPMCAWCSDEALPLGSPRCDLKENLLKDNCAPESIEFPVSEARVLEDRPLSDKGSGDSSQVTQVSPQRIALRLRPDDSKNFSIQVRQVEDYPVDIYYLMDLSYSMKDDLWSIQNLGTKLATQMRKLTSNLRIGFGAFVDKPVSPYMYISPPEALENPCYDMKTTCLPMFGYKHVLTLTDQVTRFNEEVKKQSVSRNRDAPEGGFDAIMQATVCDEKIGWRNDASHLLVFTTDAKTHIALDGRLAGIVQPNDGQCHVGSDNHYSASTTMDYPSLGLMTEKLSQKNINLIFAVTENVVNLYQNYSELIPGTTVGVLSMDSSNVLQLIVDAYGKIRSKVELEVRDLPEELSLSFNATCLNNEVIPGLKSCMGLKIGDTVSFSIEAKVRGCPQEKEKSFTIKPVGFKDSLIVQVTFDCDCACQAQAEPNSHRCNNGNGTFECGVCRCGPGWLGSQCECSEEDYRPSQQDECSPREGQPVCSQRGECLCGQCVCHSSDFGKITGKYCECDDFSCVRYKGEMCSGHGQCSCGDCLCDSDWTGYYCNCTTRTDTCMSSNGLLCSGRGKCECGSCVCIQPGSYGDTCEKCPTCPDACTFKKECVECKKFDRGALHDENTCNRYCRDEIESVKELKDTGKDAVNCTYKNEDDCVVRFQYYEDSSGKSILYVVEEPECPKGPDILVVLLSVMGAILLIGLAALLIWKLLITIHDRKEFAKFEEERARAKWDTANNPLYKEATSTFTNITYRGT
Test: cell-based or functional assay

| Binder | decrease in HUVEC adhesion on peptide functionalized alginate when αvβ3 integrin is blocked |
| --- | --- |
| B1 | ~60% |
| B2 | ~35% |
| B3 | ~35% |

Source: patent US20180120332A1 (CLEMSON UNIVERSITY RESEARCH FOUNDATION, published 2018)
